Experimental data reported in publication PMC3315326.

Target: DNMT1 (UniProt P26358 1-1616)
Assay: SPR

DNMT1, sequence (P26358 whole entry): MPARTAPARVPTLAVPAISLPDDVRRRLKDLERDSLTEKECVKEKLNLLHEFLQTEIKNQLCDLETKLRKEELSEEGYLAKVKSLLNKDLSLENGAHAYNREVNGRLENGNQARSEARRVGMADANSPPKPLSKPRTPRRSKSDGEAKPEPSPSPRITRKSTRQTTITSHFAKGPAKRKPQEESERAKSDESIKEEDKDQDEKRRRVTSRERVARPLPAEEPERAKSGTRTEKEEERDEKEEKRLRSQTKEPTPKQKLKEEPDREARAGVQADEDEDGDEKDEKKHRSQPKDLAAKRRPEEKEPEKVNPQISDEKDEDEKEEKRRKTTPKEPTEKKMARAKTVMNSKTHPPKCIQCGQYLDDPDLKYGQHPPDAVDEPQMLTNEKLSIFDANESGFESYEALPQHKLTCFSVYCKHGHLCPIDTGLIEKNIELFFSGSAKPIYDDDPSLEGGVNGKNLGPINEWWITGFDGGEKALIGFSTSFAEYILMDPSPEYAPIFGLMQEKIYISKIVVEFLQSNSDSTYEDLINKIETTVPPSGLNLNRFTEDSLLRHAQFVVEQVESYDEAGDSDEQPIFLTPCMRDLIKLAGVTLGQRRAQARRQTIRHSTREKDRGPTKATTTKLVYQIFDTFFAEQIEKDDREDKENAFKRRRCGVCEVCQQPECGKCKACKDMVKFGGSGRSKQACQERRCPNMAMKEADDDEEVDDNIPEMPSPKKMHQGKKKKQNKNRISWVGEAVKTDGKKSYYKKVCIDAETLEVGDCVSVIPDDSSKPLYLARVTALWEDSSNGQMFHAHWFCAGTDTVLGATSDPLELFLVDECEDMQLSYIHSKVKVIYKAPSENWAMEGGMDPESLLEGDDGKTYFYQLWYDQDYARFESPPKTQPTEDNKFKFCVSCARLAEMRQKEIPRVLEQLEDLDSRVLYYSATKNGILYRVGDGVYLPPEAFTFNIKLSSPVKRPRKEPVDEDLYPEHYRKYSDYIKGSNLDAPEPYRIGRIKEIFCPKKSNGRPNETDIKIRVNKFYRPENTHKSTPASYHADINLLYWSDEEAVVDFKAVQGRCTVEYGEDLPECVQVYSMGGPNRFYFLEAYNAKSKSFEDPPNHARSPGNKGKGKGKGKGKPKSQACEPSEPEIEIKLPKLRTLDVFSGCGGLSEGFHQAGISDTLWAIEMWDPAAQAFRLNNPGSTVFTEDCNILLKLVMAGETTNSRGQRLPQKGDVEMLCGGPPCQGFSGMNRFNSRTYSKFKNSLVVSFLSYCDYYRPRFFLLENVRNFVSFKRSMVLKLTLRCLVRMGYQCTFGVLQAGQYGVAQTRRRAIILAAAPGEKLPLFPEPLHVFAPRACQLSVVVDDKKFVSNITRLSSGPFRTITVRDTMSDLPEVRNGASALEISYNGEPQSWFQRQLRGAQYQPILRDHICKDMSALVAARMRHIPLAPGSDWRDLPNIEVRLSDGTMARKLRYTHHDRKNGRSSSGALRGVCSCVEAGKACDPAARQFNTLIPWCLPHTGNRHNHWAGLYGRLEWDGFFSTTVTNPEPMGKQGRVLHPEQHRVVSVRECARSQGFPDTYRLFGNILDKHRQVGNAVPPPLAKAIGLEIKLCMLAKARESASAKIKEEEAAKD

B1: hemimethylated 30-bp oligo (D1subHMF/D1subUMF) (dsDNA)
DNA 1: GAAGCTGGGACTTCCGGCAGGAGAGTGCAA
DNA 2: TTGCACTCTCCTGCCGGAAGTCCCAGCTTC
modifications: 5-methylcytosine at position 15 of strand 1
For B1, the Kd was 1070 nM.
